Test: soluble on expression in E. coli; label from the status in PepcDB or PDB records
For “MAHHHHHHMEVEWDSETVTKFYNYLCGTISYQNCVELEKDLRIETGTEEKLNKHSCSSCSDHHGDVNISCFKFKKDDDDVLGEILDSEKDQENVKASLAEITQKAFTIYSNVIAKAASKGDNKVTLETDHFLRSDILRLVFSKYITTKAKERITEISSKSTKNIVTLANPLNMNEHDLNKIETDTIANLMHDYVGLQKNFLGRDYTKLIFDELVFIEYNNQFNSFGREYKNVRTDFYCWTYITSLDRQKQRGLYKLLKELSLLPYELNKKANLSLQIGTLFQFLYFSPNKSYLKKHCQGGYGKMDNGKKVTCIYVPFVHSNDDVEIKLYRSEYNGVNEESEESEGRGKTEPNVRDATTVPSNQTDDGAPFRVIKPESDSLIFLQTRNVSYEISKTKNKFFTVNFSISGPVSTERRL”, the “soluble on expression in E. coli” value was “not soluble”.
In the case of “MGSDKIHHHHHHMAHTITIVGLGNYGIDDLPLGIYKFLKTQDKVYARTLDHPVIESLQDELTFQSFDHVYEAHDQFEDVYNDIVAQLVEAANEKDIVYAVPGHPRVAETTTVKLLALAKDNTDIDVKVLGGKSFIDDVFEAVNVDPNDGFTLLDATSLQEVTLNVRTHTLITQVYSAMVAANLKITLMERYPDDYPVQIVTGARSDGADNVVTCPLYELDHDENAFNNLTSVFVPKIITSTYLYHDFDFATEVIDTLVDEDKGCPWDKVQTHETLKRYLLEETFELFEAIDNEDDWHMIEELGDILLQVLLHTSIGKKEGYIDIKEVITSLNAKMIRRHPHIFGDANAETIDDLKEIWSKAKDAEGKQPRVKFEKVFAEHFLNLYEKTKDKSFDEASLKQWLEKGESNT”, the “soluble on expression in E. coli” value was “not soluble”.
For “SPYVFSFKMPQEQGQMFQYYPVYMVLPWEQPQQTVPRSPQQTRQQQYEEQIPFYAQFGYIPQLAEPAISGGQQQLAFDPQLGTAPEIAVMSTGEEIPYLQKEAINFRHDSAGVFMPSTSPKPSTTNVFTSAVDQTITPELPEEKDKTDSLREP”, the “soluble on expression in E. coli” value was “soluble”.
With “AHHHHHHGSNYRYPPRYGPEWGSGGIYGLRFHNGTLYFTLAFEGEAHFITEDSHKIYEFELVGPRPTSGGDTYNAVEVVDEYIYFGGWVHAPAKYRGKGEGKATIDFSNKYSHVHEYDTENQEVRLVWKESIHHPSEWAGEVSDIIYNPYTDELLLAREDGHTNLGVYSLSRNGRIRLLNDKPSAKGCQMHDLAFFGIGKNYRKGLEEIHALDMITERWEVFPLGESLDGGKYIQPHLGGNGVSVNNRVFAFVRGGVFVGNPHNDEQFAFVRLFDFYTFYAPFRVNALPIGGGILVGFNAHHDAYYRPRTQEEMIYHRFTNTIPGPSVLVYFAPPMVKIVGVFGARITSIEKVDGKILVATNTTPNVGALDATPFDTGNKDIFVLPEKILQEKPPAVSFSVPLAFPSEGKRMGAGVFGGIPLDGYDNARLIIKASRDNRLKVYEYDLALPLRDADVEEFDIKKGRNVIDLRTFSGIVSFELESEDFSGVARIELW” the “soluble on expression in E. coli” value was “not soluble”.
With “MSLDIKRVLKAAPTKMRSREPLQQLWTPWGERIEHEWLSARAGNKAFNPAEEGERTLDEGRTPILGEHPRPTMVRDNCTMLNGWWDYAIVSIPEDETAPKWRKTAAMLTRDEAVRAVKETAIPQTFDGKILVPFSPESALSGVHQTIYPDNLLWYRTVVHPVTLGGEETVRQIGDANRLILHFEAVDYVCACYVNGQLAGTHVGGYLPFDVDISAFIDPDDAFEIALCVYDPNDSGTQLRGKQKIEREGIWYTAQSGIWQSVWLEIVPEAYLRTLTLKGASDGKLFVRAEIGGDKPNAKLHIVVTDPADGTVVADETLPAGVRKVRAEIATAAEHLWSPADPYLYDVRAELRYGSAKPAETAGDAAVVQSQPMDVVSSYCAFRSVEIKPDTKGVARFHLNGKPLFVKGVLDQGYWPDGLMTAPDDEALTHDITAMKNAGFNMLRKHIKIESARWYYHCDRLGMLVWQDAVSGGGTDGEYNAWTTNRKPTLIRSTWNKFRDDTAKHFTALGADDPIYRRDWSRTCDAMVHMLGGHPSIVTWTLFNEGWGQFDACDATERIHALDPTRPIDATSGWYDQHCGDYHSVHNYFRPLEIYPDKGPLRGYVAEFEKKHRRRRRAAHYVVLPVARHGVRAFVISEFGGLAQLVPEHAAVSRAYGYGEYDSIDDWRAAVRSVLASAAALESRGLAGYVYTQVSDVEEELNGLLTYDRRVDKFAEEGHHHHHH” the “soluble on expression in E. coli” value was “soluble”.
For “MGSDKIHHHHHHKQTVSSESTEELDDASKVINYYHMSLAVLRHVANAKDINAVLGYMEQTGKVPEVDPIAPPEIAARDTAELLDPGDYFNPEVRQNLKQNYAGLFNVRTQFYDNFNKFLAYKKSKDTAKTAQLLDENYKLSVELSEYKQVIFDILSPLTEQAESELLADEPLKDQIMAMRKMSGTVQSIMNLYSRKHAMDGVRIDLKMAELEKELKAAEKIPAVTGYDEELKNFQSFLSTVKSFMNDMQKARSKGAYSDKEYQAMSEAYEYGLSVI”, the “soluble on expression in E. coli” value was “not soluble”.
With “MGSDKIHHHHHHMLSNRELLQKLLKGIETGDPAAAAVVNEEKYIQHYPQTHEGSEGLAVLFARLAKTNPRVRFVRVFEDGDFAFAHNEYDFASLRVAFEVFRFENGRAVEHWDNIQPMLGPNPSGRGMLDGVTQITDLERTEANRALVRDFAQRVLVGRQLDFLGSCVDDGLIQHDPEIADGRAAYRAALEAVTNGQPRLHYTRLHRVLAEGNFVLCMCEGERDGVHSSFYDLFRVENDTIIEHWNTIEAIAPRNEWKNENGKF” the “soluble on expression in E. coli” value was “not soluble”.
For “MGLMKFQLFIQPKLDVLQGNIVEYEILLRDDSAVPRFPLSELEAVLADEELYLAFSEWFSEAFLDVLKKYPNDRFAINIAPQQLFYIETLHWLDKLKSESHRITVEMTEDIFDVPGHKRHLNANDKNAFILNKIKVIHGLGYHIAIDDVSCGLNSLERVMSYLPYIIEIKFSLIHFKNIPLEDLLLFIKAWANFAQKNKLDFVVEGIETKETMTLLESHGVSIFQGYLVNKPFPV”, the “soluble on expression in E. coli” value was “soluble”.
In the case of “MNLMDLANEHDALILAHNYQTPEIQDVAHHVGDSLALAKIAAESQASTIVLCGVYFMAETTKILSPEKRVIIPEPEAGCSLASSITAEQLRAWKAEHPEAAVVAYVNTTAEVKALSDVCCTSSNAVRVVESIDPDRDILFLPDQFLGAHVQRETGRKNIHVWLGECHVHADISPTHITEMAHNNPQADLYVHPECGCTTSALWLASQGDIPQARILSTGGMMEAARKTAASTVLVATEIGMLHQLRKANTATDFIPVNPYAACPFMQMITMEKLEKALVEGHHEVHVDPVLAQRARGAVEAMITL”, the “soluble on expression in E. coli” value was “not soluble”.
In the case of “SLWYYLFKYIFMGPLFTLLGRPKVEGLEYIPSSGPAILASNHLAVADSFYLPLVVRRRIWFLAKSEYFTGTGLKGWINRWFYSVSGQVPIDRTNADSAQGALQTAVVLLGQGKLLGMYPEGTRSPDGRLYKGKTGLARLALHTGVPVIPVAMIGTNVVNPPGRKMLRFGRVTVRFGKPMDFSRFEGLAGNHFIERAVTDEVIYELMGLSGQEYVDIYAASVKDGRNAGGAGANPNSTDAARIPETAAEG”, the “soluble on expression in E. coli” value was “not soluble”.
In the case of “MAHHHHHHMVGIKYRKNFCDKMLRRTQQRAISQYKFGQPSLTRAFGPVPRERQVAQAGKFMSTKLPNGVRVVSHDLDGAHSVVGVYVEAGPKYDPLGCPGLSHVMRYAIQTSNMDSSLFQVDRTMRSTGNAYGHGEICKRYIHWKTEGRRDMWEKPFAMIATGVVAPRFHESDLERFRDTMDNQREELRWQNPREYCVDALETVAFFKEPLASPRMVPPESNDRCNQKVLLDHWAAYFQPGNITVAAVNIPHDALLAAYTSLPYPHSAEAPHHARSRPPTLSHASESAQFYPGRQYIVYEDRAKNMGTVPDMKEEVIAALGAPTFGRDEDVKKYATALVAREVYQASIESVMPAALTTSHGVQSFYRPYSSAGLIGITIRGAPKEIAGFLDAARGCFPIKVKDDEVAAGRARAAMAFTRNHLDMVRDYCDFIATLSVTPQQLMEAIGAVSAGEVDAALRTLSAVPPAVFVTGSTFTFPKVPSLKK”, the “soluble on expression in E. coli” value was “not soluble”.
With “VLKLDRQTQIWNRASLESGGATPAAGDIALASLLLAHGLAMNGGVAHAIESLSQAEIAAAIDGFNYFGLTDASHVFEQRPDDSEDVEERLNMMYRTAVPNDRVLAHAFRVKLVSTPSAFAPIDHGAHV” the “soluble on expression in E. coli” value was “not soluble”.
For “MSLTHAILFDLDGTLVDHASAARAALHAWSPTVGVDTDVERWIELDKWGFARFERGETTHLGQRRDRIRAYLNRELDDATCDDIYSGYLKAYEQNWTAYPDAKGVLDRAVATGAPVGILTNGAAPMQQDKLDRTGLGLPELVMLAASTLDSAKPRPEMYARALTHLGARTATIIGDDWTNDVAAPRELGWNALYLDRSGTDPRADIHSLDELFHEGHHHHHH”, the “soluble on expression in E. coli” value was “soluble”.
In the case of “MGSDKIHHHHHHMGNRQRILPLGVQAPATLEGYYPCPNAAALHAVLKLVAEPQGLCLYLYGPGGVGKSHLLLGAASALAGWTPYMDCGDVPQLFNRIKDLEGFSSLVAAPLLCLDNIEVWAGQRDKETFLFDLYNERMSNGRPMLLAGRAAPRFLDWALPDWASRASACLQVALRLPDDTERMAILQEMAQRRGLQIGVEAAHYLLRHHARDPRTLDGLLTILDAGSWEHQREVTIPFIRLCLGAEKP”, the “soluble on expression in E. coli” value was “not soluble”.
For “MNNKKPVCAEGMVKMEKKSLLILGTASHVGKSSVVTAICRILSRSYRVAPFKAQNMSLNSWITKDGKEIGIAQAIQAKAAGTEPTADMNPVLLKPKGDCVSQVVLLGEPYADKSAGQYYDSIEEMHAVLKGALERLWKEHDIIVMEGAGGAAEINLYERDIVNVGTARLTKAPIILVGDIERGGVFASLYGTIALLPEDVRKNVKGFIINKFRGDIEILRPGLKQLEDKTGIPVLGVLPHFKLRIPSEDSVSLGDKEDSKAEKEIEVAVIRLPRISNFTDFEPLEGLVKVRYVDINEELGNPDAIMIPGTKNTVNDLLDLRASGMDKKIQAFKGKVPIFGICGGYQMLGRTIFDSGVENGVEAEFEGLGLLDIGTRFGEYKKRTVQVTKKVNGYGPILRPIDGEEIKGYEIHMGVTDSNRTVFGDDGAIDEDGFVIGTYLHGLFDNRNIRNALVRYLYEKKGLEYEPDEAISENDAYEELANVVEQNIDMEKLFEIAGV”, the “soluble on expression in E. coli” value was “not soluble”.
For “MGSDKIHHHHHHMKMETGKLLMELSNLDGPSGYETNVVSYIKSVIEPFVDEAKTTRHGSLIGYKKGKGIGKLAFFAHVDEIGFVVSKVEGQFARLEPVGGVDPKVVYASKVRIYTKNGIERGVIGMLAPHLQDSESRKKVLTYDEIFVDLSLCERDVRVGDIAVIDQTAFETNGKVVGKALDNRASCGVLVKVLEFLKRYDHPWDVYVVFSVQEETGCLGALTGAYEINPDAAIVMDVTFASEPPFSDHIELGKGPVIGLGPVVDRNLVQKIIEIAKKHNVSLQEEAVGGRSGTETDFVQLVRNGVRTSLISIPLKYMHTPVEMVDPRDVEELARLLSLVAVELEV”, the “soluble on expression in E. coli” value was “not soluble”.
For “MGSDKIHHHHHHMLDKLWKKKNSMMVGIDIGSHSAKAVLLGQGNEGFIIEDFAIEPMPRGSVVDREIQDIEAVGAVIAKLRKKISAKATDAAAAVSGQTVITKLIYMDVALTEDELASQIEIEADSLIPFPLDEVSLDFETLDVNESDPSKVNVLLSAARTESIEARVAALDAGDFHAKVIDVESYAVGRAYDLCLTQLPDDAKDKVVAIVDIGSTVTLFSATDAGKHIYSRDQMFGGEQYTRSIVSYYNKSFEQAEEAKTSNDLPPNYTFEVLAPFHTVLMQQIRRAIQMFLTTSGQNKVDYLLISGGTAALEGIESLLTEELGIHTVIANPFNDMSCGESIEQAELANVAPQLMVATGLALRSFTPWHI”, the “soluble on expression in E. coli” value was “not soluble”.
In the case of “MARTQYRAEEDDDEKVVDVINEDEEDENKSDIDEDFDEDEDEDEDKQESVKAALEKERKRGEALTNLERQAKRLGVSFDAAKAIKSGMSVEKAKNVVLTAAVSKSASLKLSTTAPHRDGTSKEKIHAKWETAWRAIK”, the “soluble on expression in E. coli” value was “not soluble”.
In the case of “TMLCVLTTDAAAEPAALERALRRAAAATFDRLDIDGSCSTNDTVLLLSSGASEIPPAQADLDEAVLRVCDDLCAQLQADAEGVTKRVTVTVTGAATEDDALVAARQIARDSLVKTALFGSDPNWGRVLAAVGMAPITLDPDRISVSFNGAAVCVHGVGAPGAREVDLSDADIDITVDLGVGDGQARIRTTDLSHAYVEENSAYSS”, the “soluble on expression in E. coli” value was “soluble”.
With “MGHHHHHHSHMDNAERPRARRRRKPRVLFSQAQVYELERRFKQQRYLSAPERDQLASVLKLTSTQVKIWFQNRRYKCKRQRQDQTLELVGLPPPPPPPARRIAVPVLVRDGKPCLGD” the “soluble on expression in E. coli” value was “soluble”.
